Tests used:
CD20 antigen = CD20 antigen (UniProt P11836); assay: flow cytometry on WIL2-S cells expressing CD20; EC50 as percentage of C2B8 reference; parameters: unit not given beside the values
C1q (human) [1] = biological target: C1q (human) (UniProt P02745); assay: C1q binding ELISA, antibody coated on plate up to 100 ug/ml, 2 ug/ml C1q
C1q (human) [2] = biological target: C1q (human) (UniProt P02745); assay: cell-based or functional assay
C1q (human) [3] = biological target: C1q (human) (UniProt P02745); assay: C1q binding ELISA, antibody coated on plate, 2 ug/ml C1q, anti-C1q-HRP detection

Chain of CD20 antigen (P11836 whole entry): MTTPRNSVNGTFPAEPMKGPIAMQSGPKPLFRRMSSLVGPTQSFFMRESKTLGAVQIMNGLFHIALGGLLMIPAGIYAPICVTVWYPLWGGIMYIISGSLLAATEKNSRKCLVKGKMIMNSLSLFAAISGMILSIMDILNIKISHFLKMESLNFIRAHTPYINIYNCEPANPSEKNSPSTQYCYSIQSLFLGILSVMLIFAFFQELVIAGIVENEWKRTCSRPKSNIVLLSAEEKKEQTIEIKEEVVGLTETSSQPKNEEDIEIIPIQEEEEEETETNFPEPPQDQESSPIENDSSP
Chain of C1q (human) (P02745 23-245 limits assumed, chain 1 of 3): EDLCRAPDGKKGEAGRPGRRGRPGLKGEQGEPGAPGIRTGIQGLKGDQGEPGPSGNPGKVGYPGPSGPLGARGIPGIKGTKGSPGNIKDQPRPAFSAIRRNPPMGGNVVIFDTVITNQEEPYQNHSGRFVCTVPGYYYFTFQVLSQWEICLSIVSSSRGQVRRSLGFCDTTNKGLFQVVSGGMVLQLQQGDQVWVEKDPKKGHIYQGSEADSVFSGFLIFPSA
Chain of C1q (human) (P02746 28-253 limits assumed, chain 2 of 3, further chain): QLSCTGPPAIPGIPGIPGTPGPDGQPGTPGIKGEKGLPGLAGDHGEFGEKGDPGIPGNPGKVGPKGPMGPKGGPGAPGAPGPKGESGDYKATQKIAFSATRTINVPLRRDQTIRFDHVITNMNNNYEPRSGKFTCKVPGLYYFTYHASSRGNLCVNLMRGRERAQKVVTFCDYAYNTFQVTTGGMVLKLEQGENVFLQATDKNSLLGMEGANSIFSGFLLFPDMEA
Chain of C1q (human) (P02747 29-245 limits assumed, chain 3 of 3, further chain): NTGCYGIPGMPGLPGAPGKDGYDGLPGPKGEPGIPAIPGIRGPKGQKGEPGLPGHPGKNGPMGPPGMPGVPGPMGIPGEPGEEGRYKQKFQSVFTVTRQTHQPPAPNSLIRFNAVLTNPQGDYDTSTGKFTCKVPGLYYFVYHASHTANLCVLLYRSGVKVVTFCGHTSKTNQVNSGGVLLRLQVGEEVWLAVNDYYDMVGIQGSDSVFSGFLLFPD

Row | Substance | EC50 as a percentage of the wild type (% of wild type) (CD20 antigen) | fold lower binding than wild type C2B8 (fold lower than wild type) (C1q (human) [1]) | CDC (percent activity as compared to wild type C2B8) (% of wild type) (C1q (human) [2]) | percent decrease in binding against wild type C2B8 (C1q (human) [3])
1 | C2B8 mutant P329A (antibody) | 112 |  |  | 
2 | C2B8 mutant P331A (antibody) | 103 | 60 |  | 
3 | C2B8 mutant K320A (antibody) | 102 |  | 108 | 
4 | C2B8 mutant E318A (antibody) | 89 |  | 108 | 30 % decrease

Source: patent US20030166868A1
